Biological target: Cystic fibrosis transmembrane conductance regulator (CFTR), wild type, transiently expressed in HEK293 cells (UniProt P13569 1-1480)
Test: co-IP

Cystic fibrosis transmembrane conductance regulator (CFTR), wild type, transiently expressed in HEK293 cells, sequence (P13569 whole entry): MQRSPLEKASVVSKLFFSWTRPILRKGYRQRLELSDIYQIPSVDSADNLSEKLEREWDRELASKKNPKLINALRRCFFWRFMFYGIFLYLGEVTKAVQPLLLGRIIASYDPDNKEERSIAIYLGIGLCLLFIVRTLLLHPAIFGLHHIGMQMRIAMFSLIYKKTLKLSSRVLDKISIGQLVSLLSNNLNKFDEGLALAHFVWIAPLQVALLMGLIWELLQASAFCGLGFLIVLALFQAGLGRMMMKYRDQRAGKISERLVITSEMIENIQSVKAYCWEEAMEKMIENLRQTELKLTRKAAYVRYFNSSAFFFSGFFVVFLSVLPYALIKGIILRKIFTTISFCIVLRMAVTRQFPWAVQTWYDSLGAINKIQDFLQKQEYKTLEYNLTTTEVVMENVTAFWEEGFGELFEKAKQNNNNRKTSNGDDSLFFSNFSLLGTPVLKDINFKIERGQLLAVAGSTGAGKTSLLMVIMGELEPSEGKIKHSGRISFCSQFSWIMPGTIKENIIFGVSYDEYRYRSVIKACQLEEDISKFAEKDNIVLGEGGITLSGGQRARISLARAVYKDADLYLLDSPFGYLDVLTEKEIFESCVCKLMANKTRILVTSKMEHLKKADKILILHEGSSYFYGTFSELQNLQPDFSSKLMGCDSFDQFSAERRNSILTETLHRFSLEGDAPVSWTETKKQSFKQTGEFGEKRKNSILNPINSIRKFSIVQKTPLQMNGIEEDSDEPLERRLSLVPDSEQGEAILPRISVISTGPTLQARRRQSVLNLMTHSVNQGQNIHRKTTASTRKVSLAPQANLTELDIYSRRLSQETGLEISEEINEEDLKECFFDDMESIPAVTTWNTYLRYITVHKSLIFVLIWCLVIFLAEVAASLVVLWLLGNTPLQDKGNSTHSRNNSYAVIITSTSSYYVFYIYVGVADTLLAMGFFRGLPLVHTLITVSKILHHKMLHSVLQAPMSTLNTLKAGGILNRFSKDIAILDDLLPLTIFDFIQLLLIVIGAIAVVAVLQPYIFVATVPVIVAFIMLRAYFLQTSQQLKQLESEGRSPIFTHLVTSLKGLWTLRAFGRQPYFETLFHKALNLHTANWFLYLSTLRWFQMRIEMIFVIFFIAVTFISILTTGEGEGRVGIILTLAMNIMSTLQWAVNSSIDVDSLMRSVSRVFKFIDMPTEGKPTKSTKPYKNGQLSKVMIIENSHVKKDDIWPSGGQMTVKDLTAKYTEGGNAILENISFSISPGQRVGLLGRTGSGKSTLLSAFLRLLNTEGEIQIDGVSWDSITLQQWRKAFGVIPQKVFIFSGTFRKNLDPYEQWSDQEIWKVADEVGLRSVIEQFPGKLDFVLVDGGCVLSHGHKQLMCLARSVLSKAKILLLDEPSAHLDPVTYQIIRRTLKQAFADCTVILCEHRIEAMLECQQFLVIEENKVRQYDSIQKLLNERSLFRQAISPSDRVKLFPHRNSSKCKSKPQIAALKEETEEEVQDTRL

B1: 14-3-3ε, endogenous in HEK293 cells (natural protein, human (endogenous in HEK293), UniProt P62258 1-255, looked up)
chain: MDDREDLVYQAKLAEQAERYDEMVESMKKVAGMDVELTVEERNLLSVAYKNVIGARRASWRIISSIEQKEENKGGEDKLKMIREYRQMVETELKLICCDILDVLDKHLIPAANTGESKVFYYKMKGDYHRYLAEFATGNDRKEAAENSLVAYKAASDIAMTELPPTHPIRLGLALNFSVFYYEILNSPDRACRLAKAAFDDAIAELDTLSEESYKDSTLIMQLLRDNLTLWTSDMQGDGEEQNKEALQDVEDENQ
fold increase of the co-precipitate with forskolin against basal: 3.1 fold
